In paper PMC10450177 one finds Kd data, which are given here for 1 sequence.

The data set deals with CasDinG WT (Pseudomonas aeruginosa strain 83 (extrachromosomal plasmid)). In words: fluorescence anisotropy. The note with it: 100 mM Tris pH 8.0, 1 mM TCEP, 5 mM MgCl2, +/- 1 mM AMP-PNP, 10 nM FAM-ssDNA, CasDinG 0-2.5 uM, room temperature. (Fluorescence polarisation rises when a labelled molecule tumbles more slowly, as on binding a larger partner.)

As a reminder, the Kd is a measure of binding affinity in units of concentration. For the sequence “TCGTCACCAGTACAAACTACAACGCCTGTAGCATTCCACA [40 nt ssDNA (oligo 7)]”, the dissociation constant (Kd) came to 0.026 µM. The Kd (no nucleotide, 5 mM Mg2+) turned out to be 0.025 µM.
